The target of this experiment is GST-NET-Ct^ΔMIM (human) (UniProt P23975). The experiment is described as follows: pull-down.

We go through one substance from publication doi:10.1101/2021.06.09.447721.

“MAD2 (endogenous) (from UniProt Q13257 1-205) (natural protein)”: the reduction of MAD2 binding against wild type GST-NET-Ct turned out to be 70%.
